Source: article PMC7668254

Target: T1, DROSHA fragment D3;DGCR8 fragment G1 (human;human, UniProt Q9NRR4;Q8WYQ5 390-1365;728-750, |)
T1 sequence 1: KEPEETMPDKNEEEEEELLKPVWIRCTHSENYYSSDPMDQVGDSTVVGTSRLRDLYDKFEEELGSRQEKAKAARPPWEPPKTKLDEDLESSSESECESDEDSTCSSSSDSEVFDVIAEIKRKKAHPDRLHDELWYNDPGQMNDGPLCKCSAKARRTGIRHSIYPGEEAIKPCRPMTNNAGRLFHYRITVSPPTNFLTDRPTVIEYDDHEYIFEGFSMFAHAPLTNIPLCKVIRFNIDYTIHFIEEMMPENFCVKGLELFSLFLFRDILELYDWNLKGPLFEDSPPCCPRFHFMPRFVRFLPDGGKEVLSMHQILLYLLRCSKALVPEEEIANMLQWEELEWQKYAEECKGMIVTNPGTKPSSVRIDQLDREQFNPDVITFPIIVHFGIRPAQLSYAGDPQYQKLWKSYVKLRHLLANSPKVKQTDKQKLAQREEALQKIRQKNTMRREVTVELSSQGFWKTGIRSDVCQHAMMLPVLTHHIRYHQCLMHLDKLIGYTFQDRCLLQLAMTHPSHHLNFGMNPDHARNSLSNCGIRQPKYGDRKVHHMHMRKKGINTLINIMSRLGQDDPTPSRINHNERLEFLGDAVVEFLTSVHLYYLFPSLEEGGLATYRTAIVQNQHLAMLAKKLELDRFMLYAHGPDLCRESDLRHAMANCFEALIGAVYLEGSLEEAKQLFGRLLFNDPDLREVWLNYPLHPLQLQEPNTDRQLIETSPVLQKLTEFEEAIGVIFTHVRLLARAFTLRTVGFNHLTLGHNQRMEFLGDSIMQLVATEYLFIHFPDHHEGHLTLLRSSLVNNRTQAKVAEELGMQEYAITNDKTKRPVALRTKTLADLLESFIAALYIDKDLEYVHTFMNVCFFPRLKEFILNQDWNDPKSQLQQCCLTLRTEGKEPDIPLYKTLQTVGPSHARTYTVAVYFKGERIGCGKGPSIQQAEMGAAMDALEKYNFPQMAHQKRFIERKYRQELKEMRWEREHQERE
T1 sequence 2: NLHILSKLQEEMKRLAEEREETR
Assay: EMSA; 2 mM EDTA; 1.5 pmol RNA, 5-25 pmol D3-G1 in 10 uL; 50 mM Tris-HCl pH 7.5, 150 mM NaCl, 0.2 mg/ml BSA, 10% glycerol, 2 mM EDTA, 1 mM DTT; on ice 60 min; 4% native PAGE in 1x TBE at 4 C
Settings: protein: recombinant;recombinant; tags: ;; copies: 1;2; hairpin

B1: Short pri-mir-146a_C (structured_RNA)
RNA: GGAGAACUGAAUUCCAUGGGUUGUGUCAGUGUCAGACCUCUGAAAUUCAGUUCUUCAG
binding result: binds
